# Tests used:
# [1] = target: mouse TIM3 on cells (mouse) (UniProt Q8VIM0); assay: binding to activated mouse T cells (method not described)
# [2] = target: mouse TIM3 on cells (mouse) (UniProt Q8VIM0); assay: binding to activated mouse T cells, compared with TIM3.18 on human TIM-3
# Sequence of mouse TIM3 on cells (mouse) (Q8VIM0 20-281): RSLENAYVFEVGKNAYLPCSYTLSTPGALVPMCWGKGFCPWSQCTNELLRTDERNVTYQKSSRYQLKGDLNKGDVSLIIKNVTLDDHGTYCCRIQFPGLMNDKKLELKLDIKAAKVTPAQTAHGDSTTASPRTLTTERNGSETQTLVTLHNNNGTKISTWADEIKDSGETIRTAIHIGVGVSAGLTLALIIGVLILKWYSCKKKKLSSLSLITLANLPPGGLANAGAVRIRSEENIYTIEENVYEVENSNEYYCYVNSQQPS
substance,measurement,setting,value
RMT3-23 rat anti-mouse TIM-3 antibody (Bio-X-Cell),EC50,[1],1.7 nM
same,fold weaker EC50 than TIM3.18 on human TIM-3,[2],17 fold

# From patent US20230382992A1
